Molecular target: the molecule itself
Experiment: cryo-EM structure; purified rP2X7 in 20 mM Hepes pH 7.0, 100 mM NaCl, 0.5 mM C12M (DDM), incubated 1 hour with small-molecule antagonist (about 200 to 400 uM); six antagonist-bound structures at 2.2 to 2.7 A

B1: full-length, wild-type rat P2X7 receptor (receptor, UniProt Q64663 1-595, looked up)
chain: MPACCSWNDVFQYETNKVTRIQSVNYGTIKWILHMTVFSYVSFALMSDKLYQRKEPLISSVHTKVKGVAEVTENVTEGGVTKLVHGIFDTADYTLPLQGNSFFVMTNYLKSEGQEQKLCPEYPSRGKQCHSDQGCIKGWMDPQSKGIQTGRCIPYDQKRKTCEIFAWCPAEEGKEAPRPALLRSAENFTVLIKNNIDFPGHNYTTRNILPGMNISCTFHKTWNPQCPIFRLGDIFQEIGENFTEVAVQGGIMGIEIYWDCNLDSWSHRCQPKYSFRRLDDKYTNESLFPGYNFRYAKYYKENGMEKRTLIKAFGVRFDILVFGTGGKFDIIQLVVYIGSTLSYFGLATVCIDLIINTYASTCCRSRVYPSCKCCEPCAVNEYYYRKKCEPIVEPKPTLKYVSFVDEPHIWMVDQQLLGKSLQDVKGQEVPRPQTDFLELSRLSLSLHHSPPIPGQPEEMQLLQIEAVPRSRDSPDWCQCGNCLPSQLPENRRALEELCCRRKPGQCITTSELFSKIVLSREALQLLLLYQEPLLALEGEAINSKLRHCAYRSYATWRFVSQDMADFAILPSCCRWKIRKEFPKTQGQYSGFKYPY
notes: P2X7 receptor (P2X purinoceptor 7), rat; also called rP2X7; source: HEK293 GNTI- cells, BacMam baculovirus transduction; purified (DDM/CHS solubilisation, TALON resin, HRV 3C digestion, Superdex 200 SEC)
  stoichiometry N: 3

Source: paper PMC11451537, “P2X7 receptors exhibit at least three modes of allosteric antagonism” (Science Advances, 2024)
